Experiments:
[1] = molecular target: T1, full-length, wild-type human KIT (human, UniProt P10721 26-976); assay: cell-based or functional assay
[2] = molecular target: T2, recombinant KIT D4/D5 polypeptide (D4/D5 region of human KIT, V308 to H515, with 5xHis tag) (human, UniProt P10721 26-519); assay: binding assays on the D4/D5 region of human KIT (solid phase ELISA); IgG version of Fab Ab1 (Dyax reformatting), Example 2
T2 construct: also called recombinant antigen; recombinant IG domain four and five of the extracellular region of KIT

[3] = molecular target: T1, full-length, wild-type human KIT; assay: immunofluorescence staining with Ab1-Alexa488 on CHO/KIT and NIH3T3/KIT cells, confocal microscopy
Experimental: Immunofluorescence staining assays were carried to determine if antibody Ab1 was internalized by cells. The immunofluorescence staining assays were carried out essentially as described below. Materials and reagents for the immunofluorescence assays include the following: [0745] Tissue culture slides: Poly-D-Lysine coated four or eight well chamber slide [0746] Antibody: Antibody Ab1 conjugated with the fluorescent dye Alexa-488 (Invitrogen) [0747] Fixative: 4% paraformaldehyde; store 40% PFA microscopy grade in fridge and dilute 1:10 with PBS just before use [0748] Mounting media: Prolong Gold antifade+DAPI [0749] CHO cells engineered to express exogenous human, wild-type KIT (full-length) (“CHO/KIT”) [0750] NIH3T3 cells engineered to express exogenous human, wild-type KIT (full-length) [0751] (“NIH3T3/KIT”)
15,000 to 30,000 CHO/KIT cells or NIH3T3/KIT cells were seeded into each well of the tissue culture slide. The cells were cultivated for at least 24 hrs before starvation in media containing no fetal bovin serum overnight. Ab1-Alexa488 was diluted in starvation media containing 1% bovine serum albumin and pipetted onto the cell layer. 5 to 60 min later, cell layers were washed once with PBS (room temperature). Cell layers were fixed for 18 min with fixative at room temperature, and were washed 3 times with PBS. […] Internalization of the antibody was analyzed by confocal microscopy.

T1 sequence (P10721 other isoform, or with tags, fused parts or gaps limits assumed): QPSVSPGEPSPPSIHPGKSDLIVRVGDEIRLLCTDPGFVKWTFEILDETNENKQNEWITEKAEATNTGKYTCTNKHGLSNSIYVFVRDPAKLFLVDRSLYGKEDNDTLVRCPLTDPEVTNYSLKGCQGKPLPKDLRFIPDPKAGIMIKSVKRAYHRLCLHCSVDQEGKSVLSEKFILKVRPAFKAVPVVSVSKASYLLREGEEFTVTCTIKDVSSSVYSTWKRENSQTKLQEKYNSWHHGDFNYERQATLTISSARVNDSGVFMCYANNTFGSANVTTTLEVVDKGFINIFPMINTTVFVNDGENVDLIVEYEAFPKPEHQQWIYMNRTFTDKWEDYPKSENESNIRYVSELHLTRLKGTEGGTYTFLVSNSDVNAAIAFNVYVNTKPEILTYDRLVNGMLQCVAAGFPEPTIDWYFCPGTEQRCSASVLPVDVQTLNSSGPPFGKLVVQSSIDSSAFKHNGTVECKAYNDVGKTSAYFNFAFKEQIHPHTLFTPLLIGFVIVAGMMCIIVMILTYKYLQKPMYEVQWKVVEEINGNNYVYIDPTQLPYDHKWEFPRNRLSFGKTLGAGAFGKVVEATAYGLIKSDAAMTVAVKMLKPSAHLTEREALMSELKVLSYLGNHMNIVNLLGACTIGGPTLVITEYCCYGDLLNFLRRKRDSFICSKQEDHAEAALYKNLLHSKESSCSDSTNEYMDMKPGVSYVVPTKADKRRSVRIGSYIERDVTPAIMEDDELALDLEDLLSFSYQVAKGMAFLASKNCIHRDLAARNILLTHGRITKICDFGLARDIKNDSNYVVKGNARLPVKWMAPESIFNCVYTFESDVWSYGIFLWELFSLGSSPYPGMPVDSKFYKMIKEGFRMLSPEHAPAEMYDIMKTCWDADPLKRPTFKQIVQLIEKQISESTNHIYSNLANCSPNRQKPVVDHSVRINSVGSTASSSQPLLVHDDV
T2 sequence (P10721 other isoform, or with tags, fused parts or gaps limits assumed): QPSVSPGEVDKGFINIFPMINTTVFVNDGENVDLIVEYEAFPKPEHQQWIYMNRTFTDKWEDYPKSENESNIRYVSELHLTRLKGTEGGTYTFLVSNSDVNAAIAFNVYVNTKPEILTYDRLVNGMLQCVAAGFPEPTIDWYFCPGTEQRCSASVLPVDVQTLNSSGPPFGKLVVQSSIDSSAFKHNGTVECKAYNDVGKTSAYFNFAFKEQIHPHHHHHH

IC50 of inhibition of KIT phosphorylation (phospho-KIT assay) [1] [nM]	EC50 [2] [nM]	binding result [3]	Binder
~2.5	~0.007		IgG version of Fab antibody Ab1 (antibody, V domains shown, Variable regions of Fab Ab1 cloned into the Dyax pR vector) VH: EVQLLESGGGLVQPGGSLRLSCAASGFTFSNYLMSWVRQAPGKGLEWVSSIVPSGGFTHYADSVKGRFTISRDNSKNTLYLQMNSLRAEDTAVYYCARLQTGSWRVHAFDIWGQGTMVTVSS VL: DIQMTQSPTSLSAFVGDRVTITCQASQDIGNYLNWYQQKSGEPPKLLVYDASFLKKGVPSRFSGSGSGTQYFLTIYSLQPEDFATYFCQHSDNLSVTFGGGTKVEVK
		binds	Antibody Ab1 conjugated with the fluorescent dye Alexa-488 (antibody, V domains shown, conjugated with the fluorescent dye Alexa-488 (chain and site not stated), also called Ab1-Alexa488) VH: EVQLLESGGGLVQPGGSLRLSCAASGFTFSNYLMSWVRQAPGKGLEWVSSIVPSGGFTHYADSVKGRFTISRDNSKNTLYLQMNSLRAEDTAVYYCARLQTGSWRVHAFDIWGQGTMVTVSS VL: DIQMTQSPTSLSAFVGDRVTITCQASQDIGNYLNWYQQKSGEPPKLLVYDASFLKKGVPSRFSGSGSGTQYFLTIYSLQPEDFATYFCQHSDNLSVTFGGGTKVEVK
